In US20210347833A1 (WISYS TECHNOLOGY FOUNDATION, published 2021):

Molecular target: the molecule itself
Test: size-exclusion chromatography, titration of apoSFP with biliverdin; self-association of subunits (apo protein is monomeric, no dimer fraction seen)

B1: Recombinant wild-type Sandercyanin fluorescent protein (SFP) lacking the signal peptide (other)
chain: MFIKPGRCPKPAVQEDFDAARYLGVWYDIQRLPNKFQKGECATATYSLSPGVGFSVFNRERLANGTIKSVIGSAIAEDPCEPAKLQFFHENAAPVPYWVLSTDYDNYALVYSCINLGASHAAYASIVSRQPTLPEETIKKLQGTMSSFGVGVDTLLTTNQDAAYCSAMNQ
notes: the apo protein is a monomer in solution; also called wtSFP; wild-type SFP
- binding result: binds
